Results on 2 substances are retold here after publication PMC3285579.

Test [1] deals with MBP-WSP-1(334 aa-608 aa) (C. elegans). As to the kind of experiment: pull-down; MBP pull-down with competitors (Figure 6B): MBP-WSP-1 on amylose resin; soluble extracts of GST-NCK-1 F.L., GST-UNC-34 F.L. and His-VAB-1 as load; band intensities quantified from at least two independent blots with Image J; wash 20 mM Tris-Cl pH 7.5, 200 mM NaCl, 1 mM EDTA, 1 mM DTT.
The target of test [2] is GST-NCK-1 F.L., full length NCK-1 (1 aa-397 aa) (C. elegans). The description is as above.

Sequence of MBP-WSP-1(334 aa-608 aa) (C. elegans) (main, as listed by the source): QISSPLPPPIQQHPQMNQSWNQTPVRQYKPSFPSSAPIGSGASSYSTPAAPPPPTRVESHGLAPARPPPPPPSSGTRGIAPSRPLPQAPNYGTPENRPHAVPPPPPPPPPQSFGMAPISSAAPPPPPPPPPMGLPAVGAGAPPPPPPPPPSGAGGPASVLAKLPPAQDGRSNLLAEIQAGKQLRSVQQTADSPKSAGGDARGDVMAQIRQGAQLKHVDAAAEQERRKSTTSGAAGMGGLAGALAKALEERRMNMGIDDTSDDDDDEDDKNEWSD

In test [1], “GST-NCK-1 F.L., full length NCK-1 (1 aa-397 aa) (natural protein)” came in with a relative intensity of NCK-1 pulled down by MBP-WSP-1 with UNC-34 and VAB-1 added (NCK-1 alone = 1.0) of 1.3.
As for “GST-UNC-34 F.L., full length UNC-34 (1 aa-454) (natural protein)”, the relative intensity of NCK-1 pulled down by MBP-WSP-1 with UNC-34 added (without UNC-34 = 1.0) in test [2] came to 0.3.
